According to PMC4240464 (The Febs Journal, 2013):
Where two headings read alike, the source gives them in different places.

T1: Evasin-4 (untagged recombinant) (Rhipicephalus sanguineus, UniProt P0C8E9 24-127, appears to be highly glycosylated (six putative N-glycosylation sites))
T1 sequence: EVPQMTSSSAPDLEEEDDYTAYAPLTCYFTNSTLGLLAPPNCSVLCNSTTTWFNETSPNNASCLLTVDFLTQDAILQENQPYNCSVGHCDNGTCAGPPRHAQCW

T2: CCL25 (human, UniProt O15444 24-150)
T2 sequence: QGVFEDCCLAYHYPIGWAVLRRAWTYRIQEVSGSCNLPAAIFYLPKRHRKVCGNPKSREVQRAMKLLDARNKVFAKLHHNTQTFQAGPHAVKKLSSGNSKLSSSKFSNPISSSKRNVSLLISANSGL

T3: CCL21 (human, UniProt O00585 24-134)
T3 sequence: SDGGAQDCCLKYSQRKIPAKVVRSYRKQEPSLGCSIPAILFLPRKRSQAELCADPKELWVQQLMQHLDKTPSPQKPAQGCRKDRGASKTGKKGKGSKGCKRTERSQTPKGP

B1: 6His–Evasin-4 (natural protein)
chain: EVPQMTSSSAPDLEEEDDYTAYAPLTCYFTNSTLGLLAPPNCSVLCNSTTTWFNETSPNNASCLLTVDFLTQDAILQENQPYNCSVGHCDNGTCAGPPRHAQCW

What was measured:
Assay in all cases: SPR
[1] = molecular target: B1
[2] = molecular target: T1, Evasin-4 (untagged recombinant)
[3] = molecular target: B1; remark: listed apart in the source
[4] = molecular target: T2, CCL25
[5] = molecular target: T3, CCL21

Row | Binder | Kd [1] | koff [1] | kon [1] | Kd [2] | Kd [3] | Kd [4] | koff [4] | kon [4] | Kd [5] | koff [5] | kon [5]
1 | CCL5 E26A (ligand) SPYSSDTTPCCFAYIARPLPRAHIKAYFYTSGKCSNPAVVFVTRKNRQVCANPEKKWVREYINSLEMS | 0.09 nM | 0.00223 s⁻¹ | 2.6e+07 M⁻¹ s⁻¹ | 194 nM | 0.002 nM |  |  |  |  |  | 
2 | CCL14 (ligand) TKTESSSRGPYHPSECCFTYTTYKIPRQRIMDYYETNSQCSKPGIVFITKRGHSVCTNPSDKWVQDYIKDMKEN | 0.14 nM | 0.00148 s⁻¹ | 1.04e+07 M⁻¹ s⁻¹ |  |  |  |  |  |  |  | 
3 | CCL16 (ligand) QPKVPEWVNTPSTCCLKYYEKVLPRRLVVGYRKALNCHLPAIIFVTKRNREVCTNPNDDWVQEYIKDPNLPLLPTRNLSTVKIITAKNGQPQLLNSQ | 0.26 nM | 0.00306 s⁻¹ | 1.2e+07 M⁻¹ s⁻¹ |  |  |  |  |  |  |  | 
4 | B1 |  |  |  |  |  | 69.6 nM | 0.00054 s⁻¹ | 8000 M⁻¹ s⁻¹ | 0.01 nM | 8e-05 s⁻¹ | 1.1e+07 M⁻¹ s⁻¹
5 | CCL1 (ligand) KSMQVPFSRCCFSFAEQEIPLRAILCYRNTSSICSNEGLIFKLKRGKEACALDTVGWVQRHRKMLRHCPSKRK | 0.2 nM | 0.00326 s⁻¹ | 1.66e+07 M⁻¹ s⁻¹ | 112 nM | 1.81 nM |  |  |  |  |  | 
6 | CCL7 (ligand) not shown | 0.7 nM | 0.00988 s⁻¹ | 1.41e+07 M⁻¹ s⁻¹ |  | 0.045 nM |  |  |  |  |  | 
7 | CCL11 (ligand) not shown | 0.34 nM | 0.00435 s⁻¹ | 1.29e+07 M⁻¹ s⁻¹ | 128 nM | 0.069 nM |  |  |  |  |  | 
8 | CCL26 (ligand) TRGSDISKTCCFQYSHKPLPWTWVRSYEFTSNSCSQRAVIFTTKRGKKVCTHPRKKWVQKYISLLKTPKQL | 0.88 nM | 0.00015 s⁻¹ | 170000 M⁻¹ s⁻¹ |  | 11.4 nM |  |  |  |  |  | 
9 | CCL8 (ligand) QPDSVSIPITCCFNVINRKIPIQRLESYTRITNIQCPKEAVIFKTKRGKEVCADPKERWVRDSMKHLDQIFQNLKP | 0.25 nM | 0.00176 s⁻¹ | 7.11e+06 M⁻¹ s⁻¹ |  | 0.22 nM |  |  |  |  |  | 
10 | CCL23 (ligand) RVTKDAETEFMMSKLPLENPVLLDRFHATSADCCISYTPRSIPCSLLESYFETNSECSKPGVIFLTKKGRRFCANPSDKQVQVCMRMLKLDTRIKTRKN | 4.43 nM | 3e-05 s⁻¹ | 6000 M⁻¹ s⁻¹ | 14.1 nM | 10.8 nM |  |  |  |  |  | 
11 | CCL24 (ligand) VVIPSPCCMFFVSKRIPENRVVSYQLSSRSTCLKAGVIFTTKKGQQFCGDPKQEWVQRYMKNLDAKQKKASPRARAVAVKGPVQRYPGNQTTC | 0.41 nM | 0.0125 s⁻¹ | 3.05e+07 M⁻¹ s⁻¹ |  | 142 nM |  |  |  |  |  | 
12 | CCL18 (ligand) AQVGTNKELCCLVYTSWQIPQKFIVDYSETSPQCPKPGVILLTKRGRQICADPNKKWVQKYISDLKLNA | 0.03 nM | 0.00053 s⁻¹ | 1.96e+07 M⁻¹ s⁻¹ |  | 0.198 nM |  |  |  |  |  | 
13 | CCL19 (ligand) GTNDAEDCCLSVTQKPIPGYIVRNFHYLLIKDGCRVPAVVFTTLRGRQLCAPPDQPWVERIIQRLQRTSAKMKRRSS | 0.14 nM | 0.00035 s⁻¹ | 2.57e+06 M⁻¹ s⁻¹ |  |  |  |  |  |  |  | 
14 | CCL22 (ligand) GPYGANMEDSVCCRDYVRYRLPLRVVKHFYWTSDSCPRPGVVLLTFRDKEICADPRVPWVKMILNKLSQ | 0.43 nM | 0.0038 s⁻¹ | 8.9e+06 M⁻¹ s⁻¹ |  |  |  |  |  |  |  | 
15 | CCL17 (ligand) ARGTNVGRECCLEYFKGAIPLRKLKTWYQTSEDCSRDAIVFVTVQGRAICSDPNNKRVKNAVKYLQSLERS | 0.61 nM | 0.0107 s⁻¹ | 1.76e+07 M⁻¹ s⁻¹ | 126 nM |  |  |  |  |  |  | 
16 | CCL15 (ligand) QFTNDAETELMMSKLPLENPVVLNSFHFAADCCTSYISQSIPCSLMKSYFETSSECSKPGVIFLTKKGRQVCAKPSGPGVQDCMKKLKPYSI | 2.31 nM | 0.0936 s⁻¹ | 4.05e+07 M⁻¹ s⁻¹ | 132 nM | 0.199 nM |  |  |  |  |  | 
17 | CCL3 (ligand) SLAADTPTACCFSYTSRQIPQNFIADYFETSSQCSKPGVIFLTKRSRQVCADPSEEWVQKYVSDLELSA | 0.06 nM | 0.00089 s⁻¹ | 1.38e+07 M⁻¹ s⁻¹ | 33.1 nM | 0.393 nM |  |  |  |  |  | 
